Columns and labels:
Assay in all cases: Crosslinking/co-immunoprecipitation/mass spectrometry (TMT quantitative proteomics) to identify irisin receptors
Type in all cases: binding
[1] = target: T1, MLO-Y4 cell surface proteins (Mus musculus, UniProt Q66GT5); conditions: co-precipitated protein Ptpmt1 (PTPM1_MOUSE)
T1 construct: endogenous in cells; host or cells: MLO-Y4
T1 sequence (Q66GT5 32-193): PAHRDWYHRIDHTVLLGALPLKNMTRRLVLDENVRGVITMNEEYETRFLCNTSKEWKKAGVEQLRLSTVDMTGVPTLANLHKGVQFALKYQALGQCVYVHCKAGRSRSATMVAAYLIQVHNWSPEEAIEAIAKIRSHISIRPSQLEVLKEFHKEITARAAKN
In short: (§1)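 Relative protein abundance came from 6-plex TMT MS3 quantitation on an Orbitrap Fusion Lumos, after in-gel trypsin digestion of Coomassie-stained SDS-PAGE lanes. Input was a Ni-NTA pulldown (250 mM imidazole elution) of lysates from murine MLO-Y4 cells. These cells were treated on ice with His-tagged irisin or adipsin (10 nM, 20 min) in serum-free medium, then crosslinked with 1.5 mM DTSSP for 30 min.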

[2] = target: T2, MLO-Y4 cell surface proteins (Mus musculus, UniProt P60843); conditions: co-precipitated protein Eif4a1 (IF4A1_MOUSE)
T2 construct: endogenous in cells; host or cells: MLO-Y4
In short: as §1

[3] = target: T3, MLO-Y4 cell surface proteins (Mus musculus, UniProt Q921G7); conditions: co-precipitated protein Etfdh (ETFD_MOUSE)
T3 construct: endogenous in cells; host or cells: MLO-Y4
T3 sequence (Q921G7 33-616): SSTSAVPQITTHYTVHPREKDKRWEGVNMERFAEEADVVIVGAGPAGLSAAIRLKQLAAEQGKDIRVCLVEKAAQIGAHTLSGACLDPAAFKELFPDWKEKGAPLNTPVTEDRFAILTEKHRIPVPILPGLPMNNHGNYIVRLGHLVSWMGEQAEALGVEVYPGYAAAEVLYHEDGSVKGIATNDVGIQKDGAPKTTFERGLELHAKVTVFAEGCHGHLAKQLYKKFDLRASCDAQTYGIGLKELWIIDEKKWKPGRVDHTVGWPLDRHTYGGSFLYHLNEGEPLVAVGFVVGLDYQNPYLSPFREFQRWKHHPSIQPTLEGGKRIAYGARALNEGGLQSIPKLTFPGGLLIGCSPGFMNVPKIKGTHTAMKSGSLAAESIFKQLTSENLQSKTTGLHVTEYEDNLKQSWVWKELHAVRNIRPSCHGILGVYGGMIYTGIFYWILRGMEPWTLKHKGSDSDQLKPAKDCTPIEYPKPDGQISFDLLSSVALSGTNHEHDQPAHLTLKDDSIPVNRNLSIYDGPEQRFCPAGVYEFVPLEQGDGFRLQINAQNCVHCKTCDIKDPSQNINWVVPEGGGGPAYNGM
In short: as §1

[4] = target: T4, MLO-Y4 cell surface proteins (Mus musculus, UniProt P56567); conditions: co-precipitated protein Csta (CYTA_MOUSE)
T4 construct: endogenous in cells; host or cells: MLO-Y4
T4 sequence (P56567 1-97): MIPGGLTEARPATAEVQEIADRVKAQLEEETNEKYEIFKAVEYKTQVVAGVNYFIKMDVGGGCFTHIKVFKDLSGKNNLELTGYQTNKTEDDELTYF
In short: as §1

T2 sequence (P60843 whole entry): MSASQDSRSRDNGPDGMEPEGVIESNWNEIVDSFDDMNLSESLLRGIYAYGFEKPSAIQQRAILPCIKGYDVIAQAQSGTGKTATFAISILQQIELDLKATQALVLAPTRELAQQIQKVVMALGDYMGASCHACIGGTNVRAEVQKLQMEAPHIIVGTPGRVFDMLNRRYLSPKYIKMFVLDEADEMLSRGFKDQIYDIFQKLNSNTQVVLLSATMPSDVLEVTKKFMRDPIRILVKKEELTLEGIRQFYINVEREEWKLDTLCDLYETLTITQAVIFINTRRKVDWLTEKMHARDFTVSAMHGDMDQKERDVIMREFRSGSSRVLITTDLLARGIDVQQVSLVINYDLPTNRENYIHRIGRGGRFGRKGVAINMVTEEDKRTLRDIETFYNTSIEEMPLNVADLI

B1: irisin: secreted cleaved form of FNDC5; recombinant human/mouse irisin with C-terminal his tag produced in HEK293 cells (protein)
chain: DSPSAPVNVTVRHLKANSAVVSWDVLEDEVVIGFAISQQKKDVRMLRFIQEVNTTTRSCALWDLEEDTEYIVHVQAISIQGQSPASEPVLFKTPREAEKMASKNKDEVTMKE
modifications: left off: small tags and cut ends
notes: secreted cleaved form of FNDC5; recombinant human/mouse irisin with C-terminal his tag produced in HEK293 cells
TMT signal-to-noise ratio [1]: 51.6065
irisin/adipsin TMT signal-to-noise ratio [1]: 0.559
TMT signal-to-noise ratio [2]: 17.0483
irisin/adipsin TMT signal-to-noise ratio [2]: 0.125
TMT signal-to-noise ratio [3]: 30.6918
irisin/adipsin TMT signal-to-noise ratio [3]: 0.532
TMT signal-to-noise ratio [4]: 2.132
irisin/adipsin TMT signal-to-noise ratio [4]: 0.013
